Values belong to the binder of their own block, whether it stands above or below them.
B6: mouse RFPL4, full-length (amino acid residues 1-287) (other, UniProt Q8VH31 1-287, looked up)
chain: MAHLFKEKSNCYFCFRCLESPVYLNCGYICCLKCLDSLEKSPEGDGVLCPTCSVVSLKEDIIHAKQLGALVTKIKNLEPQLNFILTMDQGMKIFQVTMTLDVDTAQNHLIISDDLLSVYYTPQKQARKKCAERFHPSPCVLGSSRFTSGRHYWEVVVGTSKEWDIGICKESINRKKAIHLSEKNGFWTVGVRAKKVYSASTDPLTVLRVNPRLRRVGIFLDMLEKSVSFWDLSDGSHIYTFLEIPDTDPFRPFFSPASSYPDGDQEQVLSICPVTNPGIFGIPVNPQ
notes: One entry is used for all tagged forms; CHO cells: C-terminal FLAG (pCMV-Tag4A) or C-terminal MYC (pCMV-Tag5A); Western blot: endogenous protein in mouse tissue lysates; also called mRFPL4; pGBKT7-RFPL4
B7: cyclin B1, full-length (other)
chain: MALRVTRNTKINAENKAKVSMAGAKRVPVTVTAASKPGLRPRTALGDIGNKVSEELQARVPLKREAKTLGTGKGTVKALPKPVEKVPVCEPEVELAEPEPEPELEHVREEKLSPEPILVDNPSPSPMETSGCAPAEEYLCQAFSDVILAVSDVDADDGADPNLCSEYVKDIYAYLRQLEEEQSVRPKYLQGREVTGNMRAILIDWLIQVQMKFRLLQETMYMTVSIIDRFMQNSCVPKKMLQLVGVTAMFIASKYEEMYPPEIGDFAFVTNNTYTKHQIRQMEMKILRVLNFSLGRPLPLHFLRRASKVGEVDVEQHTLAKYLMELSMLDYDMVHFAPSQIAAGAFCLALKILDNGEWTPTLQHYLSYSEDSLLPVMQHLAKNVVMVNCGLTKHMTVKNKYAASKHAKISTLAQLNCTLVQNLSKAVTKA
notes: 47 kDa; also called Ccnb1; CCNB1

Tests used:
[1] = target: B6; experiment: yeast two-hybrid mating screen of the ovary cDNA library with pGBKT7-RFPL4 as bait
[2] = target: B6; experiment: yeast two-hybrid cotransformation
[3] = target: Lysosomal-associated protein 4 (LAPTM4A) (mouse, UniProt Q60961 1-233); experiment: yeast two-hybrid cotransformation
[4] = target: T1, HR6A (Ube2a), full-length (mouse, UniProt Q9Z255 1-152); experiment: yeast two-hybrid cotransformant growth/fluorescence assay
T1 construct: also called pGADT7-HR6A; MYC-tagged HR6A
T1 sequence (Q9Z255 whole entry): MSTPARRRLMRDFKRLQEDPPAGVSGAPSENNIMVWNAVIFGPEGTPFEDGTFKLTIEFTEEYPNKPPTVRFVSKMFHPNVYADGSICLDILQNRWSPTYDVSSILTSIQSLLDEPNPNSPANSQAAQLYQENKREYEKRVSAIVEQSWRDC
Text: (§1) Briefly, after inoculation, the initial fluorescence was checked and the cells were allowed to grow for 40 hr, and then the fluorescence of an oxygen sensitive dye using the [sequence] Biosensor kit (Clontech) was rechecked. Fluorescence was excited at 485 nm, and emission was read at 630 nm. To find the fold increase in fluorescence, an indication of yeast growth in selection media, the fluorescence intensity at time t=40 hr was divided by the initial intensity recorded at time t=0 hr (Fluorescence(t40)/Fluorescence(t0)). The values shown were the means of triplicate measurements of three independent transformants. Standard deviations were indicated by the error bars.

[5] = target: the molecule itself; experiment: as above
Text: as §1

cyclin B1, full-length = target: B7; experiment: co-immunoprecipitation of 35S-labelled proteins translated in vitro in reticulocyte lysate
Experimental: The pGBKT7 (MYC-Tagged) and pGADT7 (HA-Tagged) vectors were used as templates for in vitro transcription/translation using [³⁵S]Met and the TNT T7 Coupled Reticulocyte Lysate System (Promega, Madison, Wis.). In vitro translated proteins were combined at room temperature for 1 h, and reciprocal co-immunoprecipitation experiments were performed using mouse anti-MYC monoclonal or rabbit anti-HA polyclonal antibodies (Clontech).
Epitope tagged bait and prey proteins were transcribed by T7 polymerase from pGBKT7 and pGADT7 templates without DNA binding or transactivation domains. As positive control vectors, pGBKT7-murine p53 (MYC-epitope tagged) and pGADT7-SV40 large T (HA-epitope tagged) were used. ³⁵S-methionine was included in translation mixtures to generate products detectable by autoradiography.

[6] = target: T1, HR6A (Ube2a), full-length; experiment: anti-FLAG co-immunoprecipitation from lysates of cotransfected CHO cells (FLAG-tagged cyclin B1)

B3: Myosin light chain, alkali, non-muscle (MYLN) (other, mouse, UniProt Q60605 1-151, looked up)
chain: MCDFTEDQTAEFKEAFQLFDRTGDGKILYSQCGDVMRALGQNPTNAEVLKVLGNPKSDEMNVKVLDFEHFLPMLQTVAKNKDQGTYEDYVEGLRVFDKEGNGTVMGAEIRHVLVTLGEKMTEEEVEMLVAGHEDSNGCINYEAFVRHILSG
notes: Prey from the ovary cDNA library (pGADT7); Tags as for the other preys
# of clones [1]: 3 clones

Binder: B6
binding result [3]: no binding
binding result [4]: binds
binding result [5]: no binding
binding result (cyclin B1, full-length): binds

Binder: B7
binding result [6]: binds

B8: Cytochrome C oxidase subunit II (MT-CO2) (other, mouse, UniProt P00405 1-227, looked up)
chain: MAYPFQLGLQDATSPIMEELMNFHDHTLMIVFLISSLVLYIISLMLTTKLTHTSTMDAQEVETIWTILPAVILIMIALPSLRILYMMDEINNPVLTVKTMGHQWYWSYEYTDYEDLCFDSYMIPTNDLKPGELRLLEVDNRVVLPMELPIRMLISSEDVLHSWAVPSLGLKTDAIPGRLNQATVTSNRPGLFYGQCSEICGSNHSFMPIVLEMVPLKYFENWSASMI
notes: Prey from the ovary cDNA library (pGADT7)
# of clones [1]: 2 clones

The remaining lines, values ahead:

# of clones [1]: 7 clones
B1: proteasome subunit β, type 1 (PSMB1) (other, mouse, UniProt O09061 1-240, looked up)
chain: MLSTAAYRDVERELGMGPHGSAGPVQLRFSPYAFNGGTVLAIAGEDFSIVASDTRLSEGFSIHTRDSPKCYKLTDKTVIGCSGFHGDCLTLTKIIEARLKMYKHSNNKAMTTGAIAAMLSTILYSRRFFPYYVYNIIGGLDEEGKGAVYSFDPVGSYQRDSFKAGGSASAMLQPLLDNQVGFKNMQNVEHVPLTLDRAMRLVKDVFISAAERDVYTGDALRICIVTKEGIREETVPLRKD
notes: In vitro: HA tagged; CHO cells: C-terminal MYC tag; 25 kDa; also called Proteasome beta type 1 subunit (PSMB1); pGADT7-PSMB1

binding result [2]: no binding
# of clones [1]: 1 clones
B2: Microfibrillar-associated protein 2 (MFAP2) (other, mouse, UniProt P55002 17-183, looked up)
chain: QGQYDLDPLPPFPDHVQYNHYGDQIDNADYYDYQEVSPRTPEEQFQSQQQVQQEVIPAPTPEPAAAGDLETEPTEPGPLDCREEQYPCTRLYSIHKPCKQCLNEVCFYSLRRVYVVNKEICVRTVCAHEELLRADLCRDKFSKCGVMAVSGLCQSVAASCARSCGGC
notes: as for B8

# of clones [1]: 1 clones
B4: Solute carrier family 25, member 5 (SLC25A5) (other, mouse, UniProt P51881 1-298, looked up)
chain: MTDAAVSFAKDFLAGGVAAAISKTAVAPIERVKLLLQVQHASKQITADKQYKGIIDCVVRIPKEQGVLSFWRGNLANVIRYFPTQALNFAFKDKYKQIFLGGVDKRTQFWRYFAGNLASGGAAGATSLCFVYPLDFARTRLAADVGKAGAEREFKGLGDCLVKIYKSDGIKGLYQGFNVSVQGIIIYRAAYFGIYDTAKGMLPDPKNTHIFISWMIAQSVTAVAGLTSYPFDTVRRRMMMQSGRKGTDIMYTGTLDCWRKIARDEGSKAFFKGAWSNVLRGMGGAFVLVLYDEIKKYT
notes: as for B8

binding result [2]: no binding
# of clones [1]: 1 clones
B5: ATP synthase, H+ transporting, mitochondrial F0 complex, subunit F (ATP5J) (other, mouse, UniProt P97450 1-108, looked up)
chain: MVLQRIFRLSSVLRSAVSVHLKRNIGVTAVAFNKELDPVQKLFVDKIREYKSKRQASGGPVDIGPEYQQDLDRELYKLKQMYGKGEMDTFPTFKFDDPKFEVIDKPQS
notes: as for B8

From patent publication US20030144205A1 (published 2003)
